Experimental data as given in publication PMC9237115, “Hsp multichaperone complex buffers pathologically modified Tau” (Nature Communications, 2022).

Biological target: T1, Full-length human Tau (MAPT) (human, UniProt P10636-8 1-441)
T1 construct: Tau (MAPT), human, full length; 15N-labelled for the HSQC NMR experiments; also called unmodified Tau; source: E. coli BL21 (DE3), pNG2 vector, purified (boiling, ammonium sulfate, cation exchange, gel filtration)
Assay: NMR titration; 2D 1H-15N HSQC of 24 µM 15N-labelled Tau (or PTau^Cdk2), 5 °C, 25 mM HEPES pH 7.4/100 mM KCl/5 mM MgCl2/1 mM TCEP; chaperones added
Conditions: both partners purified

T1 sequence (P10636 other isoform, or with tags, fused parts or gaps): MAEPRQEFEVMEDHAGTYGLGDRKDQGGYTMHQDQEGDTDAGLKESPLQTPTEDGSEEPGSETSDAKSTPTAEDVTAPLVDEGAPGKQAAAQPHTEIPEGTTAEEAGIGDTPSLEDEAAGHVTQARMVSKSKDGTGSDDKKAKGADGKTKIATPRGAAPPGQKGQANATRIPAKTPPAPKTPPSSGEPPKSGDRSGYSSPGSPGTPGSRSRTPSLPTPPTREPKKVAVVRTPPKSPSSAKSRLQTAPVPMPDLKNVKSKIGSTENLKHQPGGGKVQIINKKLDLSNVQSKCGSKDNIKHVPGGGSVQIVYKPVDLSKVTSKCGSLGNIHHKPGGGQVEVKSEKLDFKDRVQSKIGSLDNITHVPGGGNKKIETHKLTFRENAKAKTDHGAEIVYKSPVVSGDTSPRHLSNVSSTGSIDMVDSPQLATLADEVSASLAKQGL

- binding result: binds
B1: p23 (PTGES3) (natural protein, human, UniProt Q15185 1-160, looked up)
chain: MQPASAKWYDRRDYVFIEFCVEDSKDVNVNFEKSKLTFSCLGGSDNFKHLNEIDLFHCIDPNDSKHKRTDRSILCCLRKGESGQSWPRLTKERAKLNWLSVDFNNWKDWEDDSDEDMSNFDRFSEMMNNMGGDEDVDLPEVDGADDDSQDSDDEKMPDLE
notes: p23 (PTGES3), human, full-length DNA in pET28a; source: E. coli Rosetta 2 (DE3), purified (Ni-NTA, thrombin cleavage, SEC); not shown: His6, N-terminal, cleaved
